As a reminder, the Kd is the concentration at which binding is half-saturated. Lower therefore signals higher affinity.

For the test, the target named is SARS-CoV-2 spike (two-proline stabilized S-2P extracellular domain fused to foldon) (SARS-CoV-2) (UniProt P0DTC2).

Several values for one entry are separate records, joined by “and”; a condition that tells them apart may be missing. Equal values may be shown once.

Consider antibody S309 (Pinto et al., 2020), for which the Kd is 7 nM and 20 nM.
